The source of these data is PMC10681232.

Assay [1] has as its target Flag-tagged Senegalese sole Aqp1ab2 wild-type canonical channel (Flag-SsAqp1ab2-WT) (Senegalese sole (Solea senegalensis)).
For assay [2], the target named is Flag-tagged Atlantic halibut Aqp1ab1 wild-type canonical channel (Flag-HhAqp1ab1-WT) (Atlantic halibut (Hippoglossus hippoglossus)).

Consider “HA-tagged Senegalese sole Aqp1ab2 splice variant 2 (HA-SsAqp1ab2_v2) (natural protein)”, for which the inhibition of osmotic water permeability (Pf) of X. laevis oocytes expressing SsAqp1ab2-WT plus YwhazLb, treated with FSK, after injecting equal cRNA amounts of WT and SsAqp1ab2 v2, untagged forms in assay [1] was 84%.

On to “HA-tagged Atlantic halibut Aqp1ab1 splice variant 1 (HA-HhAqp1ab1_v1)”, for which the inhibition of osmotic water permeability (Pf) of X. laevis oocytes coexpressing HhAqp1ab1 v1 and HhAqp1ab1-WT in ratios from 0.05 to 50, untagged forms, with respect to the canonical channel only in assay [2] is 94%.
